The values below are quoted from earlier work in PMC12086256.

The target of this data set is VEGFR1 (Homo sapiens) (UniProt P17948).
UniProt P17948, sequence (P17948 27-758): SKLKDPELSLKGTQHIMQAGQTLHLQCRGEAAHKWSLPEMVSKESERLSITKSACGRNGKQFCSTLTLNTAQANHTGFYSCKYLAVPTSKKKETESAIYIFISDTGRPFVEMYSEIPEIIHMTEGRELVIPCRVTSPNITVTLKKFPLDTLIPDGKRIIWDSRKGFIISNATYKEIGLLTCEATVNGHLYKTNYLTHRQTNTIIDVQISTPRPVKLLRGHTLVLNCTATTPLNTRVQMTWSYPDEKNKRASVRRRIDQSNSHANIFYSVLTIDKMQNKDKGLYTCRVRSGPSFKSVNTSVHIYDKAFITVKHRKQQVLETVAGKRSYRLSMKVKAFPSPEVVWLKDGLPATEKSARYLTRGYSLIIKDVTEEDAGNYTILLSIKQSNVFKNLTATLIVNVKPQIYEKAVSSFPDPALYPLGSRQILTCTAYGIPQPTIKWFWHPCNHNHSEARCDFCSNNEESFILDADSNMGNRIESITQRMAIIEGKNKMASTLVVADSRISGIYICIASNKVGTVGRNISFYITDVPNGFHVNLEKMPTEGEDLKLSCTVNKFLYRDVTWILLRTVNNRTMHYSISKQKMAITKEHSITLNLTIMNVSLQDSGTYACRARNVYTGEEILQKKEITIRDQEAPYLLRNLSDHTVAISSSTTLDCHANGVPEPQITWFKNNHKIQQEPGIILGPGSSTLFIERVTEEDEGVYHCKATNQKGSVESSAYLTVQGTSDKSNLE

Take VEGF-B167 (from UniProt P49765): the Kd was 2 nM.

One may read the Kd as the constant that tells how readily two partners part at equilibrium.
